This note sets out measurements from publication PMC4874879 (Molecular cell, 2016).

Assay [1] addresses FLAG- and V5-tagged ATXN7L3 (UniProt Q14CW9). The assay is described as follows: affinity purification with mass spectrometry.
Assay [2] concerns the target T1, FLAG- and V5-tagged ATXN7L3 (UniProt Q14CW9 1-347).
T1 sequence (looked up): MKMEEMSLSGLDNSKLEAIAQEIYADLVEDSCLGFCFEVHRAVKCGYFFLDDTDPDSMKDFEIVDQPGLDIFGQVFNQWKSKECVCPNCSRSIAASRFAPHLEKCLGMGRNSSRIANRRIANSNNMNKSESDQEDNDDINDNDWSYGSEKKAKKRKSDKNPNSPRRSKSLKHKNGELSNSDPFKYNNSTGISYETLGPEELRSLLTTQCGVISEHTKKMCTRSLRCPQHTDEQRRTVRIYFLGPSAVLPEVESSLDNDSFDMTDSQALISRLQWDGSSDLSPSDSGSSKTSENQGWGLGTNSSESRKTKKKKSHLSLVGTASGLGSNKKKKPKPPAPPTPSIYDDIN
In words: affinity purification with mass spectrometry.

USP27X (endogenous) (enzyme) registered a fold increase of association with ATXN7L3 upon depletion of USP22 in assay [1] of 5.5 fold.

B1: USP51 (endogenous) (enzyme, human (endogenous in 293T), UniProt Q70EK9 1-711, looked up)
chain: MAQVRETSLPSGSGVRWISGGGGGASPEEAVEKAGKMEEAAAGATKASSRREAEEMKLEPLQEREPAPEENLTWSSSGGDEKVLPSIPLRCHSSSSPVCPRRKPRPRPQPRARSRSQPGLSAPPPPPARPPPPPPPPPPPAPRPRAWRGSRRRSRPGSRPQTRRSCSGDLDGSGDPGGLGDWLLEVEFGQGPTGCSHVESFKVGKNWQKNLRLIYQRFVWSGTPETRKRKAKSCICHVCSTHMNRLHSCLSCVFFGCFTEKHIHKHAETKQHHLAVDLYHGVIYCFMCKDYVYDKDIEQIAKETKEKILRLLTSTSTDVSHQQFMTSGFEDKQSTCETKEQEPKLVKPKKKRRKKSVYTVGLRGLINLGNTCFMNCIVQALTHIPLLKDFFLSDKHKCIMTSPSLCLVCEMSSLFHAMYSGSRTPHIPYKLLHLIWIHAEHLAGYRQQDAHEFLIAILDVLHRHSKDDSGGQEANNPNCCNCIIDQIFTGGLQSDVTCQACHSVSTTIDPCWDISLDLPGSCATFDSQNPERADSTVSRDDHIPGIPSLTDCLQWFTRPEHLGSSAKIKCNSCQSYQESTKQLTMKKLPIVACFHLKRFEHVGKQRRKINTFISFPLELDMTPFLASTKESRMKEGQPPTDCVPNENKYSLFAVINHHGTLESGHYTSFIRQQKDQWFSCDDAIITKATIEDLLYSEGYLLFYHKQGLEKD
Regarding B1, the “fold increase of association with ATXN7L3 upon depletion of USP22” value in assay [2] was roughly 4 fold.
